± gives the standard deviation of the averaged measurements.
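Further: ATP exposure 15 min at 22 °C before imaging.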

The series deals with ATP. In words: switch fluorescence ratio, 500 uM ATP over buffer (Cy3 cluster intensity, sum of 5 cycles each) (fold (ratio)); higher = stronger signal-on switching upon ATP binding; sequences stand for … in TCGTCGGCAGCGTCAGATGTGTATAAGAGACAGTTTTTTTTTTTTTTTTTTTTTTTTT…TC. To be noted: aptamer strand: ATP DNA aptamer (quencher-CACCTGGGGGAGTATTGCGGAGGAAGG + anchor), 100 nM annealed; ATP concentration: 500 uM. In short, it runs like this: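 The fluorescence ratio divides summed target-cycle Cy3 intensity by summed buffer-cycle Cy3 intensity for each cluster and is averaged per switch-domain sequence. Cy3-labelled switching-strand clusters on a modified Illumina MiSeq flow-cell were annealed to 100 nM quencher-labelled ATP aptamer, then imaged in selection buffer and again after 15 min with 500 uM ATP at 22 °C. Five such cycles were run, with NaOH stripping and re-annealing between them, and clusters outside 100-1000 RFU were excluded.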
Consider AACGGAGTGG, for which the switch fluorescence ratio turned out to be 1 ± 0.042.

On to CATTGGTAGT, for which the switch fluorescence ratio was found to be 0.977 ± 0.035.

On to GATTGGTGCG, for which the switch fluorescence ratio stood at 0.976 ± 0.015.

Turning to ATCAATGGGT, the switch fluorescence ratio amounted to 0.979 ± 0.025.

With CTAGAAAGGG, the switch fluorescence ratio came to 0.999 ± 0.02.

As to AAGAGGTGTT, the switch fluorescence ratio turned out to be 1.04 ± 0.071.

On to CCTAACACGA, for which the switch fluorescence ratio is 1.11 ± 0.027.

Regarding AATTTCGGGA, the switch fluorescence ratio stood at 1.01 ± 0.044.

As to TTATGGGAA, the switch fluorescence ratio was found to be 1.04 ± 0.038.

With TTCCTATGTT, the switch fluorescence ratio amounted to 0.991 ± 0.056.

Turning to GCTGGAAAGG, the switch fluorescence ratio stood at 1.01 ± 0.079.

Take ATAGATCAGC: the switch fluorescence ratio is 0.995 ± 0.025.

In the case of ATTGGACTGG, the switch fluorescence ratio is 0.998 ± 0.057.

As to TGGGACTTGG, the switch fluorescence ratio turned out to be 1.01 ± 0.018.

For ACGTTACTAC, the switch fluorescence ratio came to 1.52 ± 0.03.

With GTTGTTTGAT, the switch fluorescence ratio came to 0.997 ± 0.052.

Consider TGCGGTCACT, for which the switch fluorescence ratio was determined as 0.9964 ± 0.0056.

As to TGTTGGGTTT, the switch fluorescence ratio worked out at 0.998 ± 0.031.

With GGGGGGGACT, the switch fluorescence ratio was determined as 1 ± 0.034.

Consider TAGAGGGGCT, for which the switch fluorescence ratio stood at 0.993 ± 0.03.

Take TGTGGGGGAT: the switch fluorescence ratio amounted to 1.01 ± 0.06.

As to GTGCATGGGG, the switch fluorescence ratio came out at 1.02 ± 0.0056.

In the case of GGTTGCGCTT, the switch fluorescence ratio is 1.29 ± 0.39.

Regarding ACATTTGCAG, the switch fluorescence ratio was 1.02 ± 0.033.

As for AATGTACCCA, the switch fluorescence ratio is 1.09 ± 0.017.

As to AGGCATGCTG, the switch fluorescence ratio worked out at 0.98 ± 0.062.

For GCTTTGGCTA, the switch fluorescence ratio turned out to be 1.02 ± 0.036.

With ATTGTGACGA, the switch fluorescence ratio was 1.03 ± 0.027.

With AGTTTGGTGT, the switch fluorescence ratio was found to be 0.997 ± 0.026.

Consider GCAGAGGTGG, for which the switch fluorescence ratio is 1.05 ± 0.037.

For the sequence GCGTTTGTGG, the switch fluorescence ratio turned out to be 1 ± 0.011.

TGGGTCCAGT: the switch fluorescence ratio was determined as 0.98 ± 0.011.

In the case of TATCAGTTCG, the switch fluorescence ratio is 0.9961 ± 0.006.

Take TTTGGAGGCT: the switch fluorescence ratio is 1.02 ± 0.063.

Turning to AATAGCCGGG, the switch fluorescence ratio stood at 0.97 ± 0.066.

Take ACGAGGCTCA: the switch fluorescence ratio came out at 1.062 ± 0.0068.

Take TTACCCCCGT: the switch fluorescence ratio stood at 1.56 ± 0.079.

Turning to ATTTGGTGTT, the switch fluorescence ratio was 1.01 ± 0.032.

On to ACTCGGGACG, for which the switch fluorescence ratio was found to be 0.9715 ± 0.0067.

Regarding TATAAGTACA, the switch fluorescence ratio was determined as 1.38 ± 0.04.

As to CAGTCGGTCA, the switch fluorescence ratio worked out at 1.01 ± 0.032.

Take ATCGGAGGAA: the switch fluorescence ratio is 1.17 ± 0.061.

Regarding GGGGCTGGGG, the switch fluorescence ratio was determined as 1.01 ± 0.034.

Turning to ATGGCCGGTG, the switch fluorescence ratio came to 1.006 ± 0.004.

For the sequence GGGGGGCCTT, the switch fluorescence ratio was 1 ± 0.04.

With GGGGAATTCA, the switch fluorescence ratio is 1.04 ± 0.046.

Turning to CGTTTATTGA, the switch fluorescence ratio stood at 1.004 ± 0.0086.

Take AGCACGTTCT: the switch fluorescence ratio turned out to be 0.993 ± 0.1.

Take TATGTTAGTT: the switch fluorescence ratio worked out at 1.01 ± 0.019.

With CGAAGATCGG, the switch fluorescence ratio was found to be 1 ± 0.023.

On to TTGTGGGGCA, for which the switch fluorescence ratio was determined as 1.02 ± 0.021.

Take TTTTATTGGG: the switch fluorescence ratio was determined as 0.975 ± 0.031.

For TTCATGTCAT, the switch fluorescence ratio was 1.01 ± 0.081.

Regarding CTAGAGGGAT, the switch fluorescence ratio is 1.02 ± 0.038.

Regarding TTCGTATAGC, the switch fluorescence ratio worked out at 1.03 ± 0.036.

For the sequence GGGTTCGGAA, the switch fluorescence ratio was found to be 0.9972 ± 0.0093.

As for TGGTGTCAGT, the switch fluorescence ratio amounted to 0.977 ± 0.022.

CTTTGGAGAC: the switch fluorescence ratio was 1.06 ± 0.051.

On to AATCTTGGGA, for which the switch fluorescence ratio was 0.977 ± 0.028.

Take AACGTTCCTG: the switch fluorescence ratio was 1.35 ± 0.11.

With GGATTAGGTA, the switch fluorescence ratio worked out at 1 ± 0.021.

Turning to TAAGAGATGT, the switch fluorescence ratio came out at 0.978 ± 0.034.

On to GGGTATCTTG, for which the switch fluorescence ratio is 1 ± 0.003.

Turning to AGGAACGGGT, the switch fluorescence ratio was found to be 0.9838 ± 0.0027.

On to TCATTGATTG, for which the switch fluorescence ratio worked out at 0.999 ± 0.022.

Regarding ACTGTGCTCT, the switch fluorescence ratio is 1.02 ± 0.016.

For TTACGATGGT, the switch fluorescence ratio was found to be 1.003 ± 0.0032.

With TCGAGTTGGT, the switch fluorescence ratio turned out to be 1.01 ± 0.0018.

For the sequence TTTCGCGGTC, the switch fluorescence ratio is 1.9 ± 1.1.

For the sequence ACATGCGCGG, the switch fluorescence ratio is 0.9999 ± 0.0079.

Turning to AAAAGATATT, the switch fluorescence ratio amounted to 0.996 ± 0.049.

Regarding GCGTTTATGT, the switch fluorescence ratio amounted to 0.953 ± 0.025.

Consider TCCAAGGGTG, for which the switch fluorescence ratio was found to be 1.46 ± 0.15.

GTTGTTTGTA: the switch fluorescence ratio came to 0.971 ± 0.021.

AATGTATCGT: the switch fluorescence ratio stood at 0.978 ± 0.021.

Consider GGGAAGAGGG, for which the switch fluorescence ratio came out at 1 ± 0.016.

As for GAATGAAGAA, the switch fluorescence ratio was 0.9989 ± 0.0081.

Consider TTTTCGTATT, for which the switch fluorescence ratio came to 0.988 ± 0.012.

On to GAGGAGTGAA, for which the switch fluorescence ratio came out at 0.9973 ± 0.0067.

On to TTGTTTTAGG, for which the switch fluorescence ratio was 0.987 ± 0.047.

Regarding AGAATGTTTC, the switch fluorescence ratio amounted to 0.973 ± 0.021.

With CAGTCTATCG, the switch fluorescence ratio came to 1.01 ± 0.021.

Regarding ACAGTAGTTA, the switch fluorescence ratio was 1.046 ± 0.0065.

Consider AGTCTGTTTC, for which the switch fluorescence ratio was 0.999 ± 0.024.

Consider ATGTTGTGGG, for which the switch fluorescence ratio was 1 ± 0.013.

Consider GCATTCGGCT, for which the switch fluorescence ratio was 1.04 ± 0.069.

As for TCAACTATTT, the switch fluorescence ratio was found to be 0.972 ± 0.031.

For the sequence GCTCTGGCTA, the switch fluorescence ratio worked out at 1.11 ± 0.022.

As to ACAGTTGGGC, the switch fluorescence ratio was 0.9946 ± 0.004.

Regarding AAATAAACGC, the switch fluorescence ratio amounted to 1.025 ± 0.0031.

For the sequence TTTATAATTT, the switch fluorescence ratio is 0.981 ± 0.018.

GCCGGGCAAC: the switch fluorescence ratio is 0.995 ± 0.037.

Regarding TTCTTAGCAC, the switch fluorescence ratio amounted to 1.58 ± 0.17.

On to AGGACTTGTC, for which the switch fluorescence ratio is 0.951 ± 0.01.

TAAGGACAGG: the switch fluorescence ratio worked out at 1.047 ± 0.0049.

As for TCATGCATGT, the switch fluorescence ratio was 1.035 ± 0.01.

As for CTTTTCTTCA, the switch fluorescence ratio turned out to be 1.01 ± 0.046.

For ATTTTTTTTT, the switch fluorescence ratio came out at 1 ± 0.026.

For the sequence CTTAGTAGTA, the switch fluorescence ratio was 0.992 ± 0.019.

For TTTTGACTTT, the switch fluorescence ratio came out at 0.998 ± 0.023.

As for TGGGGGAGAG, the switch fluorescence ratio was determined as 1.01 ± 0.03.

Turning to CAGGAGGACT, the switch fluorescence ratio was 1.02 ± 0.015.

As to CACGTGGGCA, the switch fluorescence ratio was found to be 1.01 ± 0.048.

TATCTGTGCC: the switch fluorescence ratio came out at 0.96 ± 0.054.

Turning to TGGCGGACAG, the switch fluorescence ratio stood at 0.99 ± 0.026.

Consider CTGAACTATG, for which the switch fluorescence ratio was determined as 1 ± 0.056.

For the sequence AGTAAGCCAC, the switch fluorescence ratio worked out at 1.05 ± 0.082.

In the case of ATGTTTTGGG, the switch fluorescence ratio worked out at 1.01 ± 0.024.

On to TTCGCTCGAG, for which the switch fluorescence ratio was determined as 1 ± 0.017.

Turning to GAGGTTGTAG, the switch fluorescence ratio was found to be 0.994 ± 0.021.

CGATTGTCTG: the switch fluorescence ratio was 0.958 ± 0.02.

On to ACGGGATCAT, for which the switch fluorescence ratio is 1.07 ± 0.054.

As for TTTAGGTTGC, the switch fluorescence ratio came to 0.9817 ± 0.0056.

For TAGAGGCTGC, the switch fluorescence ratio is 0.958 ± 0.042.

In the case of TTCAATCATG, the switch fluorescence ratio is 0.988 ± 0.011.

For TCCAAATTTT, the switch fluorescence ratio is 1.02 ± 0.016.

In the case of TCGAGGGAAG, the switch fluorescence ratio amounted to 0.998 ± 0.023.

As to ACCTTTAAGC, the switch fluorescence ratio was determined as 1.106 ± 0.01.

Regarding TTTTGGTGGA, the switch fluorescence ratio turned out to be 0.988 ± 0.014.

AGCCCGAGGG: the switch fluorescence ratio turned out to be 0.989 ± 0.065.

These data come from the supplement of paper PMC10126150.
